assay: soluble on expression in E. coli; label from the status in PepcDB or PDB records

Sequence	soluble on expression in E. coli
MGSDKIHHHHHHEHNRSAVTTEGGYYDTEKGFESLINSCYTPLRFWGGKSAAMAFSETGTDILAPGGGCDYPAIVSYQNDFDGTNPISKEYYDRFYKAINFCNTAIYHVKNVPFSDKTLTSKREAEVRFLRAYYYWILVETFGDTYYTDQPSESIVMAPRKTSVAEIYTHIFEDLDFCMDSRLSVAQADGGRVTMWAAKALKARLLLTRASELNDKALYEQAYTLAKEVIDNGPFELSKDFASVFDMENSDGNGNKEVIWYIDYSSTNQLYNQEMDNDIIRSGGNHTHLIFCMKYDDQPGMVRSIEYGRPFNHYMPTRYLLDCYDENIDQRFEVTFRSLWKANGGKTGDNYPYMVQGDTAIWITKDVVPQVKRQWAKGRYQILDRTDIYHEDGSVKSQKQCMPISKFEDPTRATVNEDRGTRDAFIIRVAEMYLIVAEAGAKAGKADALAYMNILRAQRAKAGKEEAMKVAQSDIEDIDFILDERARELVGEQLRWFDLKRMGSEIFIRRIKSGNPDAGKNVKAYHMLRPFPQTLLDAITNKDEFLQNEGYK	not soluble
MPNYPFPILWLPPKPLGHLLRNMDFRNLIIFSLTSKPAKWLTELLNMDAPMISVHVDHQINIIVSSVKSVTYHASNGSLRESRGKIDRQINFPGSLKQFVEHLLHIFKEHKIDDLEIMCNSVYQYKPDIQALKGIKMRTLKLRYQESILKMFGTSADRIEFSTIKSAELENSKDILIQNFDYLKFDFEGSLTADNLIGINGKVVNIWAADIEMKDVNIFLKHWLKGSNPRLEKLILKTYRLDTDGNSVEDSVADLFRDLDCESIAESQFEILRDDESIAKISILEHGYWYNKIHCYFSLNEAMNLYTTYFWDIVHLQEKILH	not soluble
GPGSMVPTLHPGEYIVFVPYTMLQVRRWFNAPLVNLSDVVVVKVSDDLSVCKRVVKCTSSRTQAEEWGKEHYVEVMPALYSPPAAQHTNGDDEDSTEIDSVANSERAYFDYVARNTVRSKDWDSCIDRIPNPSQWVWLEGDNKSESFDSRRCGPVPIECIRGLVLASIWPSPHTLQRPPPPPRASQLH	not soluble
MGSDKIHHHHHHMSDTLLEIDNLTVDFQLPTGTVSAVKHVSFSLQPGETLALVGESGSGKSVSSTAAMRLLPELARTSGAIRFKGEDLLRATPRRMRHIRGNAISMIFQEPMTSLNPLHRIGRQIAEVLEKHRGLKGRQARTKIVELLEQVGIPDPARRIDSYPHELSGGQRQRVMIAMALACEPELLIADEPTTALDVTVQAQILALLKDLQARYGMAILFITHDLGIVRHFADRVCVMRRGELIESGPTAELFDTPRDDYTRMLIDADPRGRKTPVDPSMPVLFEAKDLQVRFTLKKRLFRASEHFEAVRGIDLTIRRGQTVGIVGESGSGKSTLGRALLRLLDSRGEIRFDGQDIAALDTAGMRPLRSRLQVVFQDPFGSLSPRMTVGEVISEGLRVHHPTLDRRQREARVIEALEDVALDPAMRNRYPHEFSGGQRQRIAIARALVLKPEFLLLDEPTSALDRSVQVTVIDLLRDLQQKHGLTYLFISHDLSVVRALADTVLVMKAGQVVEQGATEEIFANPREHYTRELMRAAFVDAA	not soluble
MGSDKIHHHHHHMSRLSTAPWGPVLKSVPTAAHWSLRPWCLSISLSANSEAMNKMQTEKLITPFAHALQHEHGVWGLIDQMKAVTHFLDEELERDRIRNLGIADASFLRKFGAKGTYAAQWLEAQGVVIPTRPNSWAQAADGSLALRLGNSEFLIEDVPGGTSCDRLAQACAGARGVYPVPHVEASFVISGHAVQALFSEVCSIDLTHASLGAQDVVMTQFAGVSVVLIRQDLKEEESLYRLWCDSSYGSYLWEVIAGIAHEHKGGPVGIGRYFASCP	not soluble
MGSDKIHHHHHHMSDNEIVAGIMRDHIINLLKEGKRIDDRGFEDYRPIEIEVGIIEKAEGSALVKLGSTQVLVGIKTTLGEPFPDTPNMGVMTTNVELVPLASPTFEPGPPDERAIELARVTDRGIRESRALNLEKMVIVPGKIVRVVFIDVHVLDHDGNLMDAIGIASIAALLNAKVPKVEYNEETGEVEILEEKEPLPVERIPIPVTFAKIGNILVVDPSLEEELVMDGRLTVTTDETGHISAVQKGEGGAFKLEEVMYAVETAFKKAEEIRKIVLEAIKKSGE	not soluble
MNFLSEQLLAHLNKEQQEAVRTTEGPLLIMAGAGSGKTRVLTHRIAYLMAEKHVAPWNILAITFTNKAAREMRERVQSLLGGAAEDVWISTFHSMCVRILRRDIDRIGINRNFSILDPTDQLSVMKTILKEKNIDPKKFEPRTILGTISAAKNELLPPEQFAKRASTYYEKVVSDVYQEYQQRLLRNHSLDFDDLIMTTIQLFDRVPDVLHYYQYKFQYIHIDEYQDTNRAQYTLVKKLAERFQNICAVGDADQSIYRWRGADIQNILSFERDYPNAKVILLEQNYRSTKRILQAANEVIEHNVNRKPKRIWTENPEGKPILYYEAMNEADEAQFVAGRIREAVERGERRYRDFAVLYRTNAQSRVMEEMLLKANIPYQIVGGLKFYDRKEIKDILAYLRVIANPDDDLSLLRIINVPKRGIGASTIDKLVRYAADHELSLFEALGELEMIGLGAKAAGALAAFRSQLEQWTQLQEYVSVTELVEEVLDKSGYREMLKAERTIEAQSRLENLDEFLSVTKHFENVSDDKSLIAFLTDLALISDLDELDGTEQAAEGDAVMLMTLHAAKGLEFPVVFLIGMEEGIFPHNRSLEDDDEMEEERRLAYVGITRAEEELVLTSAQMRTLFGNIQMDPPSRFLNEIPAHLLETASRRQAGASRPAVSRPQASGAVGSWKVGDRANHRKWGIGTVVSVRGGGDDQELDIAFPSPIGIKRLLAKFAPIEKV	soluble
MGSDKIHHHHHHMVLMKKLMMKGNEAIAESAIRAGCRLYFAYPITPQSEIAEYMARRLPEVGGVFLQTESEIATVNMVYGAACTGKRVMTSTSSPGFSLMQEGISYIAGAELPCVFVDVVRGGPGLGNIQPSQGDYFQAVKGGGHGDYRLIVLAPSTLQEAVDLTQLAFDLADRYRNPVLILADGMIGQMMEPVELPEMRDLSTLPDHSDWALRGARNREPHRIAAFNIDPVGLEKMNKRLQEKYRLIEASEQRWEEYRVDGAEYLMVGYGTMGRILKSVVDSLREEGIPAGLFRPVTLWPFPKRRLKELAKKVQLIFVVEMSSGQMVEDVQISVEGKVPVHFYGRMGGVVPTPEEILFAFKEVRKWK	not soluble
MGSDKIHHHHHHMIKSFWLENFGPISLLKADNLGKINLIIAENSKGKTFILKALYSVLKSHEEAHKGKNIRDFSEELRDKLYWTFQVEEIGDLVTRGKENPNERPLKLSMTLEDSSSVLFSFGRTTKKLIKPELYELSPRINANSIFLPPKEVLSLFDVIKKSEEEKRFGFDATYIDLVKALDIKPTKGRNYPEAAEARKDLEALFGGYVSYNDKKKAWVYEKDRQTFSINSTAEGVKKIGILDTLLGNRFLSPGSILFIDEPEANLHPKAINQFLEILFSLSKSKLGIQIFMSTHSYFVIKKLCLLARKHSESIPVFMPGKEKEQTTWVQENLQNSMPDNEIIGESIRLFREEIGVLSPETAWIG	not soluble
MKTRISSSRVRFSRYYLRIRESLISIPSRKNQFRFIRKNRFALQASFRSFTENSLTLSFMLLRRSPMKQSRTFLIF	not soluble
MGSDKIHHHHHHMAGLRVFVSSTCYDLSVIRSQLRIFIQSLGHEPLMSDYSDLLYDPRLHTHTSCVDEVATADIVVLIVGARFGGKTVPEALAKLDFDLLKKESKSTESLIKKENLSVTQLEILKAVESGIPVFTFVDSSVWHDHALYEKNKDKPIINDISFPSIEKAETASFIFEFINFLRHRARGNSVYTFSKLQDIEDTLRRQWSSLFQKLIQEQRSKAFEAKRLDNLTEQFEDLKTAILTSIGTTNERDVARGVVRFRRLIDFVRSLGLKDHNFLIRGHHPWDELLHYAEIEKVLDAAELPEEFIFHRRNFGSRPRMFLIKNDGTFFELRTSPDFFHSLSLEWEAFMDLPEDTREIIVDALSEMRPGMGPLRYIREPFDYHVDKWIHQERLLKDIDDSDHESSHS	not soluble
MGSDKIHHHHHHMNYRERIAQSITPLQGNLFRVVESQEDIATARIVDSMQEQNRLEELLESNKPPVPGTARKRHYLLTTPFRYPPLKYGSRFGRSFEPSLFYGAMSIPTALAETAFYRFVFMSHLKVPFKRPLTTLHTVFSARFRTERGVRLQSEHWQDLHHTLADPVSYRESQAVGTDMRSLQVGAFQFLSARALQAGLYALPYHPDNGVEGVNVALFNASVFRDAAPRSYQKLIAVTSPSQVSMSLSEPDGSKKVYEFSLDQFLVEGELPQPAP	not soluble
